Assay results published in the nanobody polyreactivity screen of Harvey et al. (2022).

test: yeast display, Sf9 membrane polyspecificity reagent, FACS + sequencing; frameworks hold sequencing errors
Method in brief: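 Synthetic nanobody libraries on Saccharomyces cerevisiae BJ5465 were galactose-induced for 36–48 hours, stained 1 hour at 4 °C with 10% biotinylated, detergent-solubilized Sf9 membrane reagent and enriched on streptavidin microbeads. FACS then separated cells into low and high (top ~1%) gates by anti-HA (expression) and streptavidin (reagent binding) fluorescence. Genes were colony-PCR amplified, MiSeq 2 × 250 sequenced and CDR-length filtered. A clone's polyreactivity label is that of its gate of origin.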

Sequence	polyreactivity (PSR sort gate)
QVQLVESGGGLVQAGGSLRLICAPSGRIFEGYAMGWYRPATRKERELVAAISRGGGSTYYADSVKGRFTISRDNAKNTVYLQMNSLIPEDTAVYYCAKVPLTYSRSGYEYDYWGQGTQVSVSS	low polyreactivity
QVQLVESGGGLVQAGGSLRLSCAASGRIFTTNAMGWYRQAPGIERELVAAITYSGGTTYYADSVKGRFTISRDNAKNTVYFQMNSLKPEDTAVYYCAADVKFSPPYDYWGQGTQVTVSS	low polyreactivity
QVQLVESGGGLVQAGGSLRLSCAASGRILYYNVMVWYRQAPGKERELVASNTSVVSTNYADSVKGRFTISRDNAKNTVYLHMNSLKPEDTAVYYCAARYFSGSFSDEIWGMDYWGQGTQVTVSS	high polyreactivity
QVQLVESGGGLDQAGGSLRLSCAASGLTFAKYAMGWYRQAPGKERELVAAIRSGDDTTYADSVKGRFTISRDNAKNTVYLQMNSLKPEDTAVYYCAARYYRTWHGGFGYWGQGTQVTVSS	high polyreactivity
QVQLVESVGGLVQAGGSLRLICAASGRTFRGYAMGWYRQAPGKERELVAAISSSGGRTYYADSVKGRFTISRDNAKNTVYLQMNSLKPEDTAVYYCAAAVTLSPAQYGYWGQGTQVTVSS	high polyreactivity
QVQLVESGGGLVQAGGSLRLSCAASGITFGANAMGWYRQAPGKERELVAHITWSGGDTYYADSVKGRFTISRDNAKNTVYLQMNSLKPEDTAVYYCNALQPGLGSPLGEYDYWGQGTQVTVSS	low polyreactivity
QVQLVESGGGLVQAGGSLRLSCAASGRIFPFYAMGWYRPATWIQRELVAAITSSGGRTYYADSVKGRFTISRDIAKNTVYLQMNSLKPEETAVYYCAAGHGCYYRYFSQRDYWGQGTQVTVSS	low polyreactivity
QVQLVESGGGLVQAGGSLRLSCAASGRTFTRNAMGWYRQAPGKERELVAAISYSGGSTYYADSVKGRFTISRDNAKNTVYLQMNSLKPEDTAVYYCNAATSRRSIRYDYWGQGTQVTVSS	high polyreactivity
QVQLVESGGGLVQAGGSLRLSCAASGYTFDYNAMGWYRQAPGKEREFVATITASGDSTYYADSVKGRFTISRDNAKNTVYLQMNSLKPEDTAVYYCATEKRDVYFTAKYDYWGQGTQVTVSS	low polyreactivity
QVQLVESGGGLVQAVGSLRLSCAASGRTFDFYAMGWYREAPGKEREFVAAISSRGGSTYYADTVKGRFTISRDNAKNTVYLQMNSLKPEDTAVYYCAKDLGYRGRYNYWGQGTQVTVSS	low polyreactivity
QVQLVESGGGLVQAGGSLRLSCAASGSTFRSYTMGWYRQAPGKERELVAAISGRGGSTYYADSVKGRFTISRDNAKNTVYLQMNSLKPEDTAVYYCAAPYWKRVAWGFDYWGQGTQVTVSS	high polyreactivity
QVQLVESGGGLVQAGGSLRLSCAASGSIFTRNAMGWYRPAPGKERELVAAISRRGVSTYYADSVKGRFTTSRDNAKNTVYLQMNSLKPEDTAVYYCNKLSSYVVARRTTEYDYWGQGTQVTVSS	high polyreactivity
QVQLQESGGGLVQAGGSLRLSCAASGSIFLFYTMGWYRQAPVKEREFVAGITLGTTTYNADSVKGRFTISRDNVKNTVYLQMNSLKPEDTAVYYCNAVGDARYNYWGQGTQVTVSS	high polyreactivity
QVQLVESGGGLVQAGGSLRLSCAASGRIFGWYAMGWYRQAPGKERELVAAINWDGTSTDYADSVKGRFTISRDNAKNTVYLQMNSLKPEDTAVYYCAAEGHTAFLVYRVSPLQYDYWGQGTQVTVSS	low polyreactivity
QVQLQESGGLVQAGGSLRLSCAASGSISGRNVMGWYRQAPGKEREFVASITDGSSTNYADSVKGRFTISRDNAKNTVYLQMNSLKPKDTAVYYCAAYAQRAKSFGYWGRGTQVTVSS	low polyreactivity
QEQLVESGGGLVQAGGSLRLSCAASGNTFSYNAMGWYRQAPGKEREVVAAISSRGVRTYYADSVKGRFTISRDNAKNTVYLQMNSLKPEDTAVYYCAADLWDWAYDYWGQGTQVTVSS	high polyreactivity
QVQLEESGGGLVQAGGSLRLSCAASGSIFYDYAMGWYRQAPGKERELVAAISKSDGSTYYADSVKGRFTISRDNAKNTVYLQMNSLKPEDTAVYYCNADLIYSYPPEYDYWGQGTQVTVSS	high polyreactivity
QGQLVESGGGLVQAGGSLRLSCAASGSTFYLNAMGWYRQAPGKERELVATITRRGGRTYYADSVKGRFTISRDNAKNTVYLKMNSLKPEDTAVYYCNKGGISPGDALYGYWGQGTQVTVSS	low polyreactivity
QVQLVESGGGLVQAGGSLRLSCAASGSTIPWYAMGWYRQAPGKEREFVAAISWSSGRTYYADSVKGRFTISRDNAKNTVYLQMNSLKPEDTAVYYCAARQWAYYRDVEMGYWGQGTQVTVSS	high polyreactivity
QVQLVESGGGLVQAGGSLRLSCAASGSTFYQNAMGWYRQAPGKERELVAAISGGSDTYYADSVKGRFTISRDNAKNTVYLQMNSLKPEDTAFYYCAADVASSEGKSWTLKDEYDYWGQGTQVTVSS	low polyreactivity
QVQLVESGGGLVQAGGSLRLRCAASGGIFGFYAMGWYRQAPGKERELVAAISWGGGSTYYADSVKGRFTIARDNAKNTVFVQMNSLKPEDTAVYYCAADPALTKEYGYWGQGTQVTVSS	low polyreactivity
QVQLVESGGGLVQAGGSLRLSCAASGSTFAWYAMGWYRTAPGKERELVAAISRTGRTYYADSVKGRFTMSRDNAKNTVYLQMNSLKPEDTAVYYCAARIERFYRDQRYDYWGQGTQVTVSS	high polyreactivity

Sequence	polyreactivity (PSR sort gate)
QDQLVESGGGLVQAGGSHRLTCAASGFIFAYYAMGWYRQAPGKERELVAAISRSGARTYYADSVKGRFTISRDNAKNTVYLQMKSLKPEDTAVFYCSARIIVDVVGTKYYYWGQGTQVTVSS	high polyreactivity
QDQLVESGGGLVQAGGSLRLSCAASRITIYRYVMGWYRQAPGKERELVAAITSAGSTNYADSVKGRFTISRDHAKTTVYLQMNSLKPEDTAVYYCNADYKGYVRPYVRIRYGYWGQGTQVTVSS	low polyreactivity
QVQLVESGGGLVQAGGSLRLSCAASGRTFFLYAMGWYRQAPGKEREFVATISYGGGSTYYADSVKGRFTISRDNAKNTVYLQMNSLKPEDTAVYYCNALNTSQYAEGTSDYDGNMGYWGQGTQVTVSS	low polyreactivity
QVQLVESGGGLVQAGGSLRLSCAASGSTIERYAMGWYRPAPGKERELVAAIRWSGGSTYYADSVKGRFTISRDNAKNTVYLQMNSLKPEDTAVYYCAASRSNADWFDSLGQGTQVTVSS	high polyreactivity
QVQLVESGGGLVQAGGSLRLSCAASGRTIGTYAMGWYRQAPGTERELVAAIRSNAGSTYYADSVKGRFTISRDNGKNTVYLQMNSLKPEDTAVYYCAKSYRSSRRYNYWGQGTQVTVSS	high polyreactivity
QVQLVESGGRLVQAGGSLRLSCAPSGFIFGDNGIGGSRQSPGKEMELVAGINRRSGTYYADSVKGRFTISRDNAKNTVYLLMNSLKREDTAVYYCAARLDAYQSGRYYYWGQGTQVTLSS	high polyreactivity
QDQLVESGGGLVQAGGSLRLICAASGFTITTYAMGWYRQAPGKERELVASISYSGGRTYYADSVKGRFTISRDNAKNTVYLQLNSLKPEDTAVYFCAAVGVRNRAPSRGGYWGQGPQVTVSS	high polyreactivity
QVQLVESGGGLVQAGGSLRLSCAASGIIIDSNAMGWYRQAPGKERELVAAITSGGSTKYADSVKGRFTISRDNAKNTVYLQMNSLKPEDTAVYYCNADFRQADQCSYFYEMDSWGQGTQVTVSS	low polyreactivity
QVQLVESGGGLVQAGGSLRLSCAASGRTFASNDMGWYRQAPGKERELVADINNGARTYYADSVKGRFTISRDNAKNTVYLQMNSLKPEDTAVYYCNTRSGFYLGDFDYWGQGTQVTVSS	high polyreactivity
QDQLVESGGGLVQAGGSLRISCAASGRIFDYNAMGWYRQAPGKERELVAAITGGGNTTYADSVKGRFTISRDNAKNTVYLQMNSLKPEDTAVYYCAADVVSVYRLSYKPLGYYWGQGTQVTVSS	low polyreactivity
QVQLVESGGGLVQAGGSLRLSCAATGRTFSVYTMGWYRQAPGKERELVASISRSGGRTYYADSVKGRFTISRDNAKNTVYLQMNSLKPEDTAVYYCAARWYSASALKYYYWGQGTQVTVSS	high polyreactivity
QLQLVESGGGLVQAGGSLRLSCAASGFTFGVYAMGWYRQAPGKERELVAAISTTVGSTYYADSVKGRYTISRDNAKNTVYLQMNSLKPEDTAVYYCAAEYTGYISYYIYEDWGQGTQVTVSS	low polyreactivity
QVQLVESGGGVVQAGGTLRLSCAASGINFIDNTMGWYRQAPGKEREFVATISANSDGTYYADSVKRRFTISRDNAKKTVYLQMNSLKPEETAVYYWGQGTQVTVSS	low polyreactivity
QVQLVESGVGLVQAGGSLRLSCASSGRTFYDYAMGWYRQAPGKERELVATISSRGDGTYYADSVKGRFTISRDYAKITVCLLMNSLKPEDTAVYYCAARYRRVHSGYGYWGQGTHVTVSS	high polyreactivity
QVQLVESGGGLVQEGGSLRISCAASGSIFQSNAMGRYRQAPGKERERVAAISSSGVRTYYADSVKGRFTISRDNAKNTVYLQMNSLKREDTAVYYCATGWYYAGGPTYEYYYWGQGTQVTVSS	low polyreactivity
QVQLVESGGGLVQAGGSRRLRCAASGSIISSYALGWYRQAPGQEMEFVAAISTGGRTYYADSVKGRFTISRDNGKNTVYLQMNSLKPEDTAVYYCAADGPLPHKVGTHTLDYWGQGTQVTVSS	low polyreactivity
QVQLVESGGGLVQAGGSLRLSCAASGSIFGWYVMGWYRQAPGKERELVAAISSVGSTYYADSVKGRFTISRDNAKNTVYLQMNSLKPEDTAVYYCAKLRYPYLFWDDSEYWGQCTQVTVSS	low polyreactivity
QVQLVESGGGLVQAGGSLRLSCAASGSTFFHYAMGWYRQAPGKERELVAAIDSNGGSTYYADSVKGRFTISRDNAKNTVYLQMNSLKPEVTAVYYCAADDLAEFEYDYWGLGTQVTVSS	low polyreactivity
QVQLVESGGGLVQEGGSLRISCAASGRIFDSNAMVWYRQAPGKERELVAAISNGGTTNYADSVKGRFTISRDNAKNTVYLQMNSLKPADTAVYYCAARGRVVWYNGGSYRFYYWGQGTQVTVSS	high polyreactivity
QVQLVESGGGLVQAGGSLRLSCAAYGSIFDSNTMGWYRQAPGKERELVAGISTGGSTNYADSVKGRFTISRDNAKNTVYLQMNSQKPEDTAVYYCNADLGSSYDWGQGTQVTVSS	low polyreactivity
QVQLVESGGGLVQAGGSLRLSCAASGFIFGRNTMGWYIQAPGKERELVAAITSGGSTNYADSVKGRFTISRDNAKNTVYLQMNSLKPEDTAVYYCAAEVSTYWTLYDYWGQGTQVTVSS	high polyreactivity
